How the values were obtained:
[1] = Surface area calculation
Experimental: A surface area calculation was also performed to determine the change in surface area between the conversion of BCA to BCA-Ac18 and BCA to BCA-Hex18. It was calculated that the reaction with acetic anhydride changed the surface area of BCA by 400 Å^2 and the reaction with hexanoic anhydride changed the surface area of BCA by 1180 Å^2. Since this change is a factor of 2.9, it can be concluded that this estimate that each modification with hexanoic anhydride adds three times the amount of surface area than modification with acetic anhydride is justified.

[2] = biological target: T1, BCA (Bos taurus, UniProt P00921); test: Effect of DNSA present in the denaturing solution on rate of SDS denaturation; design: species or system bovine; conditions: DNSA present with the protein in the denaturing SDS solution
T1 construct: purchased Sigma-Aldrich (St. Louis, Mo.)
T1 sequence (P00921 whole entry): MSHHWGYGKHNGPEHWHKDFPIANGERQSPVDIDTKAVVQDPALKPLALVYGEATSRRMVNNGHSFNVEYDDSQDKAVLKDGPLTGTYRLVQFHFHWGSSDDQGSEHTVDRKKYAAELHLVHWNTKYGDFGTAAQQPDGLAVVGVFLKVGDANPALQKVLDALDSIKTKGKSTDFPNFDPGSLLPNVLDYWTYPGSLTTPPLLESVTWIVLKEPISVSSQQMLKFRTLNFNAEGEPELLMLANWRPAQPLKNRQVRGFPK
Experimental: The kinetics of unfolding were determined as follows. The rates of denaturation of BCA and BCA-Ac18 were measured by incubating the protein (200 nM) in solutions of different concentrations of SDS. Immediately prior to the measurement, an aliquot of solution containing protein and SDS was mixed with a solution containing DNSA and the same concentration of SDS; this protocol minimized the possibility that DNSA might stabilize the native conformation of the protein, and influence the rate of its denaturation. When BCA was denatured in concentrations of SDS of 4 mM and higher, DNSA was added to the original, denaturing solution because the rate of denaturation was too fast to follow with manual mixing of aliquots of protein and DNSA. It was observed that DNSA, when present with the protein in the denaturing solution, reduced the rates of denaturation by factors of about 2-10.

Compound | ratio of surface area change, hexanoic vs acetic anhydride [1] | factor by which rates of denaturation are reduced [2]
BCA-Hex18: BCA with all 18 lysines modified with hexanoic anhydride | 2.9 | –
CN(C)c1cccc2c(S(N)(=O)=O)cccc12 [DNSA, Dansyl amide] | – | 2-10

Reference: patent publication US20080113421A1, “Stabilizing proteins against denaturation and inactivation by charged detergents using chemical modifications, including modifications that increase net charge” (President and Fellows of Harvard College, priority 2006, published 2008)
